Laboratory results taken from US11325966.

Experiments:
Assay in all cases: cell-based or functional assay
[1] = target: HIV-1 Env of pseudovirus BJOX025000.01.1 (HIV-1)
[2] = target: HIV-1 Env of pseudovirus 6240_08_TA5_4622 (HIV-1)
[3] = target: HIV-1 Env of pseudovirus CNE5 (HIV-1)
[4] = target: HIV-1 Env of pseudovirus 1012_11_TC21_3257 (HIV-1)
[5] = target: HIV-1 Env of pseudovirus CNE52 (HIV-1)
[6] = target: HIV-1 Env of pseudovirus T278-50 (HIV-1)
[7] = target: HIV-1 Env of pseudovirus T251-18 (HIV-1)
[8] = target: HIV-1 Env of pseudovirus BJOX028000.10.3 (HIV-1)
[9] = target: HIV-1 Env of pseudovirus 1054_07_TC4_1499 (HIV-1)
[10] = target: HIV-1 Env of pseudovirus 191084 B7-19 (HIV-1)
[11] = target: HIV-1 Env of pseudovirus TRO.11 (HIV-1)
[12] = target: HIV-1 Env of pseudovirus SC05_8C11_2344 (HIV-1)
[13] = target: HIV-1 Env of pseudovirus REJO4541.67 (HIV-1)
[14] = target: HIV-1 Env of pseudovirus CNE19 (HIV-1)
[15] = target: HIV-1 Env of pseudovirus 231966.c02 (HIV-1)
[16] = target: HIV-1 Env of pseudovirus CNE58 (HIV-1)
[17] = target: HIV-1 Env of pseudovirus CNE21 (HIV-1)
[18] = target: HIV-1 Env of pseudovirus 9004SS_A3_4 (HIV-1)
[19] = target: HIV-1 Env of pseudovirus X2131_C1_B5 (HIV-1)
[20] = target: HIV-1 Env of pseudovirus CNE17 (HIV-1)
[21] = target: HIV-1 Env of pseudovirus AC10.0.29 (HIV-1)
[22] = target: HIV-1 Env of pseudovirus CAAN5342.A2 (HIV-1)
[23] = target: HIV-1 Env of pseudovirus T250-4 (HIV-1)
[24] = target: HIV-1 Env of pseudovirus ZM249M.PL1 (HIV-1)
[25] = target: HIV-1 Env of pseudovirus Q23.17 (HIV-1)
[26] = target: HIV-1 Env of pseudovirus ZM197M.PB7 (HIV-1)
[27] = target: HIV-1 Env of pseudovirus Ce1086_B2 (HIV-1)
[28] = target: HIV-1 Env of pseudovirus 191821_E6_1 (HIV-1)
[29] = target: HIV-1 Env of pseudovirus Ce2060_G9 (HIV-1)
[30] = target: HIV-1 Env of pseudovirus X1193_c1 (HIV-1)
[31] = target: HIV-1 Env of pseudovirus ZM109F.PB4 (HIV-1)
[32] = target: HIV-1 Env of pseudovirus ZM233M.PB6 (HIV-1)
[33] = target: HIV-1 Env of pseudovirus 6041.v3.c23 (HIV-1)
[34] = target: HIV-1 Env of pseudovirus Du172.17 (HIV-1)
[35] = target: HIV-1 Env of pseudovirus Du156.12 (HIV-1)
[36] = target: HIV-1 Env of pseudovirus X2088_c9 (HIV-1)
[37] = target: HIV-1 Env of pseudovirus 211-9 (HIV-1)
[38] = target: HIV-1 Env of pseudovirus WEAU_d15_410_787 (HIV-1)
[39] = target: HIV-1 Env of pseudovirus Ce704809221_1B3 (HIV-1)
[40] = target: HIV-1 Env of pseudovirus BJOX009000.02.4 (HIV-1)

Question: For BG18 IgG (354BG18) (antibody), which IC50 in TZM-bl assay [1] is on record?
Answer: > 30 µg/mL

Question: What about the IC80 in TZM-bl assay [1] of the same substance?
Answer: > 30 µg/mL

Question: And the IC50 in TZM-bl assay [2]?
Answer: 0.003 µg/mL

Question: What about the IC80 in TZM-bl assay [2] of the same substance?
Answer: 0.01 µg/mL

Question: What about the IC50 in TZM-bl assay [3] of the same substance?
Answer: > 30 µg/mL

Question: What about the IC80 in TZM-bl assay [3] of the same substance?
Answer: > 30 µg/mL

Question: And the IC50 in TZM-bl assay [4]?
Answer: 0.003 µg/mL

Question: What about the IC80 in TZM-bl assay [4] of the same substance?
Answer: 0.012 µg/mL

Question: What about the IC50 in TZM-bl assay [5] of the same substance?
Answer: 0.012 µg/mL

Question: And the IC80 in TZM-bl assay [5]?
Answer: 0.045 µg/mL

Question: And the IC50 in TZM-bl assay [6]?
Answer: 2.95 µg/mL

Question: And the IC80 in TZM-bl assay [6]?
Answer: 12.9 µg/mL

Question: What about the IC50 in TZM-bl assay [7] of the same substance?
Answer: 0.086 µg/mL

Question: And the IC80 in TZM-bl assay [7]?
Answer: 0.328 µg/mL

Question: What about the IC50 in TZM-bl assay [8] of the same substance?
Answer: 0.474 µg/mL

Question: What about the IC80 in TZM-bl assay [8] of the same substance?
Answer: 14.9 µg/mL

Question: And the IC50 in TZM-bl assay [9]?
Answer: 0.005 µg/mL

Question: And the IC80 in TZM-bl assay [9]?
Answer: 0.022 µg/mL

Question: What about the IC50 in TZM-bl assay [10] of the same substance?
Answer: 0.011 µg/mL

Question: And the IC80 in TZM-bl assay [10]?
Answer: 0.043 µg/mL

Question: And the IC80 in TZM-bl assay [11]?
Answer: 0.002 µg/mL

Question: And the IC50 in TZM-bl assay [12]?
Answer: 0.003 µg/mL

Question: What about the IC80 in TZM-bl assay [12] of the same substance?
Answer: 0.016 µg/mL

Question: What about the IC50 in TZM-bl assay [13] of the same substance?
Answer: > 30 µg/mL

Question: What about the IC80 in TZM-bl assay [13] of the same substance?
Answer: > 30 µg/mL

Question: What about the IC50 in TZM-bl assay [14] of the same substance?
Answer: > 30 µg/mL

Question: And the IC80 in TZM-bl assay [14]?
Answer: > 30 µg/mL

Question: And the IC50 in TZM-bl assay [15]?
Answer: > 30 µg/mL

Question: What about the IC80 in TZM-bl assay [15] of the same substance?
Answer: > 30 µg/mL

Question: And the IC50 in TZM-bl assay [16]?
Answer: 0.024 µg/mL

Question: What about the IC80 in TZM-bl assay [16] of the same substance?
Answer: 0.073 µg/mL

Question: And the IC50 in TZM-bl assay [17]?
Answer: 0.002 µg/mL

Question: What about the IC80 in TZM-bl assay [17] of the same substance?
Answer: 0.007 µg/mL

Question: What about the IC50 in TZM-bl assay [18] of the same substance?
Answer: 0.005 µg/mL

Question: What about the IC80 in TZM-bl assay [18] of the same substance?
Answer: 0.056 µg/mL

Question: And the IC50 in TZM-bl assay [19]?
Answer: 0.002 µg/mL

Question: What about the IC80 in TZM-bl assay [19] of the same substance?
Answer: 0.008 µg/mL

Question: What about the IC50 in TZM-bl assay [20] of the same substance?
Answer: 0.02 µg/mL

Question: And the IC80 in TZM-bl assay [20]?
Answer: 0.109 µg/mL

Question: What about the IC80 in TZM-bl assay [21] of the same substance?
Answer: 0.003 µg/mL

Question: What about the IC50 in TZM-bl assay [22] of the same substance?
Answer: 0.008 µg/mL

Question: And the IC80 in TZM-bl assay [22]?
Answer: 0.04 µg/mL

Question: What about the IC80 in TZM-bl assay [23] of the same substance?
Answer: 0.006 µg/mL

Question: And the IC50 in TZM-bl assay [24]?
Answer: > 30 µg/mL

Question: And the IC80 in TZM-bl assay [24]?
Answer: > 30 µg/mL

Question: And the IC50 in TZM-bl assay [25]?
Answer: 0.006 µg/mL

Question: And the IC80 in TZM-bl assay [25]?
Answer: 0.02 µg/mL

Question: What about the IC50 in TZM-bl assay [26] of the same substance?
Answer: > 30 µg/mL

Question: What about the IC80 in TZM-bl assay [26] of the same substance?
Answer: > 30 µg/mL

Question: What about the IC50 in TZM-bl assay [27] of the same substance?
Answer: > 30 µg/mL

Question: What about the IC80 in TZM-bl assay [27] of the same substance?
Answer: > 30 µg/mL

Question: What about the IC50 in TZM-bl assay [28] of the same substance?
Answer: 14.1 µg/mL

Question: What about the IC80 in TZM-bl assay [28] of the same substance?
Answer: > 30 µg/mL

Question: And the IC50 in TZM-bl assay [29]?
Answer: > 30 µg/mL

Question: And the IC80 in TZM-bl assay [29]?
Answer: > 30 µg/mL

Question: And the IC50 in TZM-bl assay [30]?
Answer: 0.005 µg/mL

Question: And the IC80 in TZM-bl assay [30]?
Answer: 0.022 µg/mL

Question: What about the IC50 in TZM-bl assay [31] of the same substance?
Answer: > 30 µg/mL

Question: What about the IC80 in TZM-bl assay [31] of the same substance?
Answer: > 30 µg/mL

Question: What about the IC50 in TZM-bl assay [32] of the same substance?
Answer: 2.87 µg/mL

Question: And the IC80 in TZM-bl assay [32]?
Answer: 29.8 µg/mL

Question: What about the IC50 in TZM-bl assay [33] of the same substance?
Answer: > 30 µg/mL

Question: What about the IC80 in TZM-bl assay [33] of the same substance?
Answer: > 30 µg/mL

Question: What about the IC50 in TZM-bl assay [34] of the same substance?
Answer: > 30 µg/mL

Question: What about the IC80 in TZM-bl assay [34] of the same substance?
Answer: > 30 µg/mL

Question: What about the IC50 in TZM-bl assay [35] of the same substance?
Answer: 0.003 µg/mL

Question: And the IC80 in TZM-bl assay [35]?
Answer: 0.01 µg/mL

Question: What about the IC50 in TZM-bl assay [36] of the same substance?
Answer: 0.004 µg/mL

Question: What about the IC80 in TZM-bl assay [36] of the same substance?
Answer: 0.009 µg/mL

Question: What about the IC50 in TZM-bl assay [37] of the same substance?
Answer: 1.3 µg/mL

Question: And the IC80 in TZM-bl assay [37]?
Answer: 5.53 µg/mL

Question: What about the IC50 in TZM-bl assay [38] of the same substance?
Answer: 0.003 µg/mL

Question: And the IC80 in TZM-bl assay [38]?
Answer: 0.012 µg/mL

Question: And the IC50 in TZM-bl assay [39]?
Answer: 4.39 µg/mL

Question: And the IC80 in TZM-bl assay [39]?
Answer: > 30 µg/mL

Question: And the IC50 in TZM-bl assay [40]?
Answer: 24.4 µg/mL

Question: What about the IC80 in TZM-bl assay [40] of the same substance?
Answer: > 30 µg/mL
